Assay results published in patent US20040014209A1, “Compositions and methods for modulating cell differentiation” (priority 2002, published 2004).

Legend:
DMZ explants = assay: Wnt cDNA overexpression in DMZ explants, Nkx2.5 and TnIc by in situ hybridization; format: cell-based, Xenopus; details: plasmid cDNA injection into dorsal blastomeres; for Incidence of explants expressing Nkx2.5: stage 23; for Incidence of explants expressing TnIc: stage 30
Excerpt: If the normal function of Wnt antagonism in vivo is to induce cardiogenic mesoderm, then overexpression of Wnt proteins should block cardiogenesis in dorsal mesoderm. Four Wnt genes are known to be expressed during gastrulation: Wnt3A, Wnt5A, Wnt8, and Wnt11. Expression of Wnt8 is normally excluded from the organizer region, whereas Wnt 3A and Wnt11 are expressed dorsally and Wnt5A is found diffusely throughout the ectoderm (Christian and Moon 1993; Ku and Melton 1993; Moon et al. 1993; Du et al. 1995; McGrew et al. 1997). We injected Wnt cDNAs into the two dorsal blastomeres of a four-cell embryo and dissected DMZ explants encompassing the organizer and heart primordia at stage 10 (FIG. 10A). Plasmid injections were performed to avoid perturbation of Nieuwkoop center activity that can occur on expression of certain Wnts before the midblastula transition (Smith and Harland 1991; Sokol et al. 1991). Explants were cultured to either stage 23 or stage 30, at which time they were examined for the expression of Nkx2.5 or TnIc.
(§1) Marginal zone explants were dissected at stage 10. Those explants to be examined by RT-PCR for expression of heart field marker- and heart muscle-specific genes were cultured until sibling embryos were stage 30. In situ hybridization was performed on explants cultured to the equivalent of stage 23 or stage 30. Explants to be scored for formation of beating hearts were maintained until the equivalent of stage 41.
(§2) mRNA was transcribed from pSP35-chd, pSP64-ngn, pCS2-DKK1, pCS2-Crescent, pCS2-GSK3, pCS2-WIF, pCS2-dnXwnt8, pCS2-szl, and pXT7-FrzA using the SP6 and T7 mMessage mMachine kits (Ambion). All cDNAs used encode Xenopus proteins except those for Wnt1 and crescent, which encode chick isoforms. The Xenopus form of crescent was identified while this manuscript was in preparation (Pfeffer et al. 1997; Pera and De Robertis 2000; Shibata et al. 2000) and functions identically to the chick isoform in our assays. Xenopus and chick Crescent share 88% amino acid positional identity within the cysteine-rich domain. Injections were performed in 3% Ficoll in 1×MMR. Embryos were injected equatorially into the two ventral or two dorsal blastomeres at the four-cell stage to target expression to the ventral or dorsal marginal zone. The amount of mRNA injected is given in the text. For plasmid cDNA injections, 75 pg of pCS2-Xwnt3A, pCS2-Xwnt5A, and pCSKA-Xwnt8 and 100 pg of pCS2-cWnt11 supercoiled plasmid constructs were injected.
In situ hybridization was performed according to the protocol of Harland (1991). Digoxygenin-labeled probes were transcribed from the following linearized plasmids: pGEM-XNkx2.5 (XbaI, T7 polymerase) and pBS-TnIc (NotI, T7).

mWnt-3a = mWnt-3a (UniProt P27467); assay: cell-based or functional assay
Chain of mWnt-3a (P27467 19-352 limits assumed): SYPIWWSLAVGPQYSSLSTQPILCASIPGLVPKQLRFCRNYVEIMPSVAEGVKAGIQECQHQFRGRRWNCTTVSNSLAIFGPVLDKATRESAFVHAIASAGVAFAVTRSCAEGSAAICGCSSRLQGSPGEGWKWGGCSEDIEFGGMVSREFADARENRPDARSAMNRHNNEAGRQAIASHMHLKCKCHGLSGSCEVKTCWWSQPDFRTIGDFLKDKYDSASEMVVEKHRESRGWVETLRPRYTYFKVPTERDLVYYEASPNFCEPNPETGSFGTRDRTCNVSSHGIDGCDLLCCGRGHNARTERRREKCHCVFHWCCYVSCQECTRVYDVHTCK

stage 7 chick embryos = assay: Cell pellet implantation into stage 7 chick embryos in New culture (heart looping, DiI tracing, in situ hybridization); format: in vivo
APMEE explants = assay: APMEE explant culture, cardiac gene expression by RT-PCR; format: cell-based, chick; details: noggin administration to APMEE explants
[1] = test system: ventral marginal zone (VMZ) explants; assay: VMZ explant assay: mRNA injection, cardiac-specific gene expression and beating; format: cell-based, Xenopus laevis
Description: In a modification of this assay (FIG. 6A), we targeted mRNAs encoding Wnt and BMP antagonists to VMZ tissue by microinjection into the equatorial region of both ventral blastomeres of four-cell stage embryos. VMZ explants were isolated at stage 10, cultured, and assayed at stage 30 by RT-PCR for cardiac-specific gene expression.
Embryos were fertilized in vitro, dejellied in 2% cysteine-HCl (pH 7.8), and maintained in 0.1×MMR. Explant dissections were performed in 0.75×MMR using an eyelash knife. Embryos were staged according to Nieuwkoop and Faber (1994).
as §1, §2
RT-PCR was performed as described in Schneider and Mercola (1999). Twenty-five cycles were performed at an annealing temperature of 55° C., unless otherwise noted. Expression of EF1α was used as a positive control for the reverse transcriptase reaction. The following additional primers were used: XNkx2.5+, […] (SEQ ID NO: 7); XNkx2.5−, […] (SEQ ID NO: 8); M. actin+, […] (SEQ ID NO: 9); M. actin−, […] (SEQ ID NO: 10) (22 cycles); TnIc+, […] (SEQ ID NO: 11); TnIc−, […] (SEQ ID NO: 12); MHCα+, […] GTTCCG (SEQ ID NO: 13); MHCα−, […] (SEQ ID NO: 14); Tbx5+, […] (SEQ ID NO: 15); Tbx5−, […] (SEQ ID NO: 16) (27 cycles); XNkx2.10+, […] (SEQ ID NO: 17); and XNkx2.10−, […] (SEQ ID NO: 18) (59° C., 28 cycles).
A secreted version of the C-terminal fragment was made by fusing the secretory region of human Dkk1 to the C-terminal region cysteine rich region, as described above. This protein is referred to as “C1.” Briefly, the HindIII-Asp718 C-terminal fragment of human Dkk1 (SEQ ID NO: 1) was ligated to the sequence encoding the secretory signal of Dkk1 and cloned into a vector permitting in vitro transcription. As a control, full length Dkk1 was used. RNA was prepared in vitro from the vector as described above. The RNA encoded a polypeptide comprising amino acids 158-266 of SEQ ID NO: 2. The RNA was then injected into noncardiogenic frog embryonic mesoderm, as described above and in Schneider and Mercola (2001) Genes & Dev. 15:304.

[2] = test system: murine embryonic stem (ES) cells; assay: Cardiac differentiation of ES cells; format: cell-based
Description: Full length human Dkk1 (SEQ ID NO: 2) was expressed in host cells and incubated with murine embryonic stem (ES) cells. ES cells were lightly trypsinized, re-plated on petri plastic and cultured for 4 days. During this time, the cells cluster and the mesodermal marker brachyury becomes expressed. Cells were then trypsinized lightly and transferred to gelatin-coated plates with or without recombinant Dkk1 and cultured at 37° C. Cardiomyocyte differentiation of ES cells in the absence of Dkk1 occurs at 13-14 days. ES cells incubated with Dkk1 differentiated into cardiomyocytes at 8-9 days (see FIG. 21).
Cells were grown on gelatin-coated plates without LIF for 2d, then allowed to aggregate on petri dish plastic for 2d, aggregates were then dispersed by mild trypsinization and plated onto gelatin-coated plates with rDkk1- or rC1-conditioned medium or control conditioned medium lacking rDkk for duration of experiment. Presence of beating foci was scored on days 8-14. Instances of beating foci presented as “beating”. Precocious beating sometimes occurred at day 8.

Wnt3A was tested, and the “Incidence of explants expressing Nkx2.5” value (DMZ explants) was 45.6% and the “Incidence of explants expressing TnIc” value (DMZ explants) was 24.2%.

Work on chick Crescent yielded a Wnt-induced expression of siamois in Xenopus animal caps (RT-PCR) (mWnt-3a) of 3 fold.

B1: BMP-4: BMP-4 expressed by implanted 293 cell pellets (protein, UniProt P12644 293-408, looked up)
Bone morphogenetic protein 4: SPKHHSQRARKKNKNCRRHSLYVDFSDVGWNDWIVAPPGYQAFYCHGDCPFPLADHLNSTNHAIVQTLVNSVNSSIPKACCVPTELSAISMLYLDEYDKVVLKNYQEMVVEGCGCR
For B1, the “Embryos with reversed heart looping” value (stage 7 chick embryos; 293 cell pellets in left anterior paraxial mesoderm, stage 7, n=25) was 20% and the vMHC expression (stage 7 chick embryos; cell pellets in presumptive anterior paraxial mesoderm, in situ hybridization) was “failed to affect subsequent vMHC expression”.

B2: Noggin: BMP antagonist; noggin-conditioned medium from CHO cells or injected noggin mRNA (protein, UniProt P49011 20-222, looked up)
Noggin: RIDQGGCQHYLHIRPAPSENLPLVDLIEHPDPIYDPKEKDLNETLLRTLMVGHFDPNFMATILPEERLGVEDLGELDLLLRQKPSGAMPAEIKGLEFYEGLQSKKHRLSKKLRRKLQMWLWSQTFCPVLYTWNDLGTRFWPRYVKVGSCYSKRSCSVPEGMVCKAAKSMHLTILRWRCQRRVQQKCAWITIQYPVISECKCSC
With B2 the “APMEE explants in which cardiogenesis was blocked (number of explants)” value (APMEE explants) was 10 out of 14, the “mRNA dose inducing muscle actin” value ([1]; VMZ explants) was no less than 5 pg and the “mRNA dose at which explants were unable to survive” value ([1]; extreme morphogenetic movements of VMZ explants) was greater than 50 pg. For the same molecule, the “Heart-specific gene expression (TnIc, MHCα)” value ([1]; mRNA injected ventrally at four-cell stage, VMZ explants, RT-PCR stage 30) was “did not induce specific markers of cardiogenesis”.

B3: Wnt8: expressed from injected pCSKA-Xwnt8 plasmid (protein)
chain: AWSVNNFLMTGPKAYLTYSASVAVGAQNGIEECKYQFAWERWNCPESTLQLATHNGLRSATRETSFVHAISSAGVMYTLTRNCSMGDFDNCGCDDSRNGRIGGRGWVWGGCSDNAEFGERISKLFVDGLETGQDARALMNLHNNEAGRLAVKETMKRTCKCHGISGSCSIQTCWLQLAEFRDIGNHLKIKHDQALKLEMDKRKMRSGNSADNRGAIADAFSSVAGSELIFLEDSPDYCLKNISLGLQGTEGRECLQSGKNLSQWERRSCKRLCTDCGLRVEEKKTEIISSCNCKFHWCCTVKCEQCKQVVIKHFCARRERDSNMLNTKRKNRGHRR
With B3 the “Incidence of explants expressing Nkx2.5” value (DMZ explants) was 19.9% and the “Incidence of explants expressing TnIc” value (DMZ explants) was 41.1%.

B4: Wnt5A: expressed from injected pCS2-Xwnt5A plasmid (protein, UniProt P31286 41-380, looked up)
Protein Wnt-5a: VVESSSWWSLGMNPVQMPEVYIIGAQPLCSQLSGLSQGQKKLCQLYQDHMQFIGDGAKTGIKECQYQFRHRRWNCSTVDNTSVFGRVMQIGSRETAFTYAISAAGVVNAVSRACREGELSTCGCSRAARPKDLPRDWLWGGCGDNLDYGYRFAKEFVDAREREKIHQKGSYESSRIMMNLHNNEAGRRAVSTLADVACKCHGVSGSCSLKTCWLQLADFRKVGDHLKEKYDSAGAMKLNTRGKLVQVNNKFNSPTMNDLVYIDPSPDYCVHNESTGSLGTQGRLCNKTSEGMDGCELMCCGRGYDQFKTVQTERCHCKFHWCCYVKCKKCTEVVDQFACK
In the case of B4, the “Incidence of explants expressing Nkx2.5” value (DMZ explants) is reported as 97.5% and the “Incidence of explants expressing TnIc” value (DMZ explants) is reported as 85.9%.

B5: Wnt11: expressed from injected pCS2-cWnt11 plasmid (protein, UniProt P49339 25-354, looked up)
Protein Wnt-11: IKWIALSKTPSSLALNQTQHCKQLEGLVVSQVQLCRSNLELMQTIIQAAREVIKTCRKTFSDMRWNCSSIELAPNYLLDLERGTRESAFVYALSAAAISHTIARACTTGDLPGCSCGPIPGETPGPGYRWGGCADNLNYGLIMGSKFSDAPMKMKKSGSQANKLMHLHNSEVGRQVLKASLEMKCKCHGVSGSCSIKTCWKGLQELRDIALDLKNKYLSATKVVHRPMGTRKYLVPKDIDIRPVKETELIYLQSSPDFCMKNEKVGSHGTQDRQCNKTSNGSDSCDLMCCGRGYNPYMDKVVERCHCKYHWCCYVTCKKCERTVERYVCK
In the case of B5, the “Incidence of explants expressing Nkx2.5” value (DMZ explants) is reported as 94.1% and the “Incidence of explants expressing TnIc” value (DMZ explants) is reported as 83.1%.

B6: Dkk1: Full length human Dkk1 (SEQ ID NO: 2), recombinant, expressed in host cells (protein, UniProt O94907 1-266, looked up)
chain: MMALGAAGATRVFVAMVAAALGGHPLLGVSATLNSVLNSNAIKNLPPPLGGAAGHPGSAVSAAPGILYPGGNKYQTIDNYQPYPCAEDEECGTDEYCASPTRGGDAGVQICLACRKRRKRCMRHAMCCPGNYCKNGICVSSDQNHFRGEIEETITESFGNDHSTLDGYSRRTTLSSKMYHTKGQEGSVCLRSSDCASGLCCARHFWSKICKPVLKEGQVCTKHRRKGSHGLEIFQRCYCGEGLSCRIQKDHHQASNSSRLHTCQRH
modifications: full-length
In the case of B6, the “myosin light chain (MLC2a) mRNA” value ([2]; PCR, relative to ES cells not incubated with Dkk1) is reported as “elevated myosin light chain (MLC2a) mRNA”, the “Beating, Nkx2.5 and contractile protein expression” value ([2]; by comparison with ES cells not incubated with Dkk1) is reported as “early beating, an increased number of beating foci, an increased Nkx2.5 expression and increased contractile protein expression” and the “Time to cardiomyocyte differentiation of ES cells” value ([2]; recombinant Dkk1, 13-14 days in the absence of Dkk1) is reported as 8 to 9 days.
